Experimental data reported in publication PMC13418256.

Target: human TLR5 (human) (UniProt O60602)
Sequence of UniProt O60602 (O60602 21-858): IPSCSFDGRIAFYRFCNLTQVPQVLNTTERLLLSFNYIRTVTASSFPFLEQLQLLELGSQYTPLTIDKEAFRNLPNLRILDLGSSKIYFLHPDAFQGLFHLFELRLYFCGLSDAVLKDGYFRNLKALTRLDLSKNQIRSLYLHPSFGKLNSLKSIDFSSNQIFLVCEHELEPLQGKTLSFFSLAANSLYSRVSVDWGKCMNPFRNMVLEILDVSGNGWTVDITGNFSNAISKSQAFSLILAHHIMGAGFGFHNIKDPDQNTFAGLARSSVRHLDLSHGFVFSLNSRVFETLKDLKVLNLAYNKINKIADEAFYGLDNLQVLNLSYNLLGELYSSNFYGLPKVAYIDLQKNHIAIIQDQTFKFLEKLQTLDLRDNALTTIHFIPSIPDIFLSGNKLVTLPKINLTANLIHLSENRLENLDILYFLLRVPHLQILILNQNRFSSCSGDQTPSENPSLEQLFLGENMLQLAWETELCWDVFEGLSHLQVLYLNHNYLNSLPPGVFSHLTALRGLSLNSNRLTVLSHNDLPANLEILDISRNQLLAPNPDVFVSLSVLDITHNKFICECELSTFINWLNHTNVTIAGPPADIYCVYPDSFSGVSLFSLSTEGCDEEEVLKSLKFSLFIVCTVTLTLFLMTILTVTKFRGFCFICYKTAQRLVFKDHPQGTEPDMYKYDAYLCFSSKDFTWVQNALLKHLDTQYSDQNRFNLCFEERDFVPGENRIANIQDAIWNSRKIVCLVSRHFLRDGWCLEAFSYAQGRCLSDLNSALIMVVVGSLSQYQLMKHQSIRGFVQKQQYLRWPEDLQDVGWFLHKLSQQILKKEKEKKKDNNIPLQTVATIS

Enterobacter sp. BIDMC93 host-encoded flagellin FliCH (natural protein)
TLR5-driven NF-κB activation (SEAP colorimetric reporter) in HEK293T-Blue-hTLR5 cells stimulated with an Ent strain expressing only FliCH (ΔfliCP-tldR-gRNA), against the WT lysogenic strain (fold of the WT lysogenic strain): 2
